# Molecular target: the molecule itself
# Assay: SEC + native gel or EMSA
protein,measurement,value
dual-functional fusion protein KFS (KALA peptide - human ferritin light chain - SIINFEKL) (other) WEAKLAKALAKALAKHLAKALAKALKAIRQNYSTDVEAAVNSLVNLYLQASYTYLSLGFYFDRDDVALEGVSHFFRELAEEKREGYERLLKMQNQRGGRALFQDIKKPAEDEWGKTPDAMKAAMALEKKLNQALLDLHALGSARTDPHLCDFLETHFLDEEVKLIKKMGDHLTNLHRGGGGSGGGGSGGGGSSIINFEKL,stoichiometry N,40

# From publication PMC11764028 (Bioactive Materials, 2025)
